This assay deals with Clostridioides difficile toxin A (Clostridioides difficile, strain not …, UniProt P16154). Briefly: SPR. Particulars: both partners purified.

As usually defined, the Kd is the free concentration of one partner at which half of the binding sites on the other are occupied at equilibrium, for simple one-to-one binding. Higher therefore signals a looser complex. As a reminder, the koff is the rate constant with which the complex falls apart. Higher therefore signals fast dissociation. The term kon denotes a measure of how fast the partners come together. Read a low kon as slow association.

Numbering of substitutions follows the chain as printed.

B1: A26.8 VHH, wild-type (canonical Cys23-Cys104 disulfide linkage only) (VHH)
VHH: QVKLEESGGGLVQAGGSLRLSCAASERTFSRYPVAWFRQAPGAEREFVAVISSTGTSTYYADSVKGRFTISRDNAKVTVYLQMNNLKREDTAVYFCAVNSQRTRLQDPNEYDYWGQGTQVTVSS
Consider B1, for which binding was characterised by a dissociation constant (Kd) of 16.5 nM, the koff amounted to 0.0259 s⁻¹ and the kon came to 1.57e+06 M⁻¹ s⁻¹.

B2: A26.8 VHH with engineered Cys4-Cys25 disulfide linkage (VHH)
VHH: B1 VHH with L4C, A24C
On to B2, for which binding was put at a Kd of 12.6 nM, the koff worked out at 0.062 s⁻¹ and the kon was found to be 4.93e+06 M⁻¹ s⁻¹.

B3: A26.8 VHH with engineered Cys22-Cys88 disulfide linkage (VHH)
VHH: B1 VHH with S21C, Y80C
On to B3, for which the Kd stood at 18.7 nM, the koff stood at 0.028 s⁻¹ and the kon turned out to be 1.5e+06 M⁻¹ s⁻¹.

B4: A26.8 VHH with engineered Cys6-Cys119 disulfide linkage (VHH)
VHH: B1 VHH with E6C, G115C
Regarding B4, the dissociation constant (Kd) worked out at 12.6 nM, the koff came out at 0.0691 s⁻¹ and the kon was found to be 5.5e+06 M⁻¹ s⁻¹.

B5: A26.8 VHH with engineered Cys4-Cys118 pair (VHH)
VHH: B1 VHH with L4C, W114C
Take B5: the Kd came out at 43.4 nM.

B6: A26.8 VHH with engineered Cys24-Cys86 disulfide linkage (VHH)
VHH: B1 VHH with A23C, T78C
The molecule B6 returned a Kd of 43.6 nM, a koff of 0.0271 s⁻¹ and an association rate constant (kon) of 621000 M⁻¹ s⁻¹.

Source of the values: article PMC10641266, “Sequence tolerance of immunoglobulin variable domain framework regions to noncanonical intradomain disulfide linkages” (The Journal of Biological Chemistry, 2023).
